Publication PMC9523049, “Structures of Mec1/ATR kinase endogenously stimulated by different genotoxins” (Cell Discovery, 2022)

Target: T1, Mec1 (yeast homolog of ATR), wild type, activated in vivo by HU or MMS (yeast (endogenous in cultured yeast …, UniProt P38111 1-2368))
T1 construct: Mec1 kinase, yeast homolog of human ATR, wild type, endogenous; purified together with Ddc2; they may stand in the supplementary file; also called ATR/Mec1; Mec1/ATR kinase; source: endogenously purified from cultured yeast cells treated with HU or MMS
Experiment: cryo-EM structure; Mec1-Ddc2 complex endogenously purified from yeast cells treated with HU (HU-Dimer1, HU-Dimer2) or MMS (MMS-Dimer)
Details: both partners purified

T1 sequence (P38111 whole entry): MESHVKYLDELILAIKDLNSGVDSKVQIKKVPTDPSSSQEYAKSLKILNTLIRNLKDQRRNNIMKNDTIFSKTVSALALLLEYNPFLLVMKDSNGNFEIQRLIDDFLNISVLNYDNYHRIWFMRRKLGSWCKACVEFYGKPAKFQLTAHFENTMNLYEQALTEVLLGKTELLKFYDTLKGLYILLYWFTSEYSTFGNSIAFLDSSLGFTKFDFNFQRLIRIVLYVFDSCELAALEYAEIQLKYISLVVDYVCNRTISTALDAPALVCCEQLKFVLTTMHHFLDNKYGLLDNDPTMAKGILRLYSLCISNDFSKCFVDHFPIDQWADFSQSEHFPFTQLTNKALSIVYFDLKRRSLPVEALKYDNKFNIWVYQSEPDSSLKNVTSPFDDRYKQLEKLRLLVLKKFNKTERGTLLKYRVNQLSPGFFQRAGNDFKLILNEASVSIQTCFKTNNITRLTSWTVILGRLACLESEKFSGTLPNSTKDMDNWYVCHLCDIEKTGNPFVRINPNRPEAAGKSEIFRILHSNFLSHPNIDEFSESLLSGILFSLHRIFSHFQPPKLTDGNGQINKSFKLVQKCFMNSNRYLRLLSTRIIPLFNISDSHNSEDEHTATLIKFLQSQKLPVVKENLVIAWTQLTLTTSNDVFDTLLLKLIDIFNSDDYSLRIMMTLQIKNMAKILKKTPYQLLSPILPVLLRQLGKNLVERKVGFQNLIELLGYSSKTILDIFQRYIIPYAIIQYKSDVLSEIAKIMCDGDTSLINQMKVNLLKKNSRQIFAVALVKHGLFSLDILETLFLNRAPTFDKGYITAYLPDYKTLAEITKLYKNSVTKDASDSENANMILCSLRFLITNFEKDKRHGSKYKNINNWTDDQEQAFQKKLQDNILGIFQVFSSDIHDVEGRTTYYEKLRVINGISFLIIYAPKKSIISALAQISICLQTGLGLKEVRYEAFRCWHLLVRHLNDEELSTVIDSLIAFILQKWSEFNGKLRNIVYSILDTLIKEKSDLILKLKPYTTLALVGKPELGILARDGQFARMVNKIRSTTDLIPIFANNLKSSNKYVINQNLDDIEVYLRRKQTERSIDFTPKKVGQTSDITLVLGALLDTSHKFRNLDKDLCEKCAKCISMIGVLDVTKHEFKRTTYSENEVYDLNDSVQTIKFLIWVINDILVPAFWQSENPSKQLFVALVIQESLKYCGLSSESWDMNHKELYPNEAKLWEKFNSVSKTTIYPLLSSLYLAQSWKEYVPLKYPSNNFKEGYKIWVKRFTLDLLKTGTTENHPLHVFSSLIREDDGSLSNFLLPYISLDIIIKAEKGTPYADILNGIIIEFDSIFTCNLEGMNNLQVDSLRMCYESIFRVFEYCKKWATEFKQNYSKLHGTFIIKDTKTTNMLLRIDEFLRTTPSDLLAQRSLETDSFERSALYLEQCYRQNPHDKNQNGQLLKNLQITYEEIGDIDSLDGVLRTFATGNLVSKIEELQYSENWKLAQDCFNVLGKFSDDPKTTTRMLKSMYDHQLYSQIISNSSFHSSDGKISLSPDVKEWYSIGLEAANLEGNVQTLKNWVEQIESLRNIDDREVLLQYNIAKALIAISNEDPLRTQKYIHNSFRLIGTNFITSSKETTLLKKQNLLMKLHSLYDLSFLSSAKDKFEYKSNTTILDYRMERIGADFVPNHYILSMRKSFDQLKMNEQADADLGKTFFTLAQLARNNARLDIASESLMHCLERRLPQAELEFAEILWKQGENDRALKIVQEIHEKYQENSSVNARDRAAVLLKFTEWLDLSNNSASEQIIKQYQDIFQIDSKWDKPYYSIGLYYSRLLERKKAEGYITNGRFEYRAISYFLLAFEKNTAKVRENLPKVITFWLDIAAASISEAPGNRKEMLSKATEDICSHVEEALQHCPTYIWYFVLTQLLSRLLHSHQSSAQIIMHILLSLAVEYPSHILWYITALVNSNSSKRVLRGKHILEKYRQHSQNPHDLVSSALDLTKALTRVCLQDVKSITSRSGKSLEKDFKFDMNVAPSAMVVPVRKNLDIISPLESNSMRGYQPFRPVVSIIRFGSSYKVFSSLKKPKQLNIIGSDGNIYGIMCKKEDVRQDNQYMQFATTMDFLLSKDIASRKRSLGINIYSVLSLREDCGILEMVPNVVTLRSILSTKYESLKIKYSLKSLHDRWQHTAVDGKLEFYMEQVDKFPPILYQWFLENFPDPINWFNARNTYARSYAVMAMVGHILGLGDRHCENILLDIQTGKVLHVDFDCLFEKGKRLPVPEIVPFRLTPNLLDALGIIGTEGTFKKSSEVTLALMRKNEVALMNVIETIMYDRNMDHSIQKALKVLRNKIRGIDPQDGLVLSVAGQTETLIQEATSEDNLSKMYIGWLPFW

B1: Ddc2 (yeast homolog of ATRIP) (natural protein, UniProt Q04377 1-747, looked up)
chain: MRRETVGEFSSDDDDDILLELGTRPPRFTQIPPSSAALQTQIPTTLEVTTTTLNNKQSKNDNQLVNQLNKAQGEASMLRDKINFLNIEREKEKNIQAVKVNELQVKHLQELAKLKQELQKLEDEKKFLQMEARGKSKREVITNVKPPSTTLSTNTNTITPDSSSVAIEAKPQSPQSKKRKISDNLLKKNMVPLNPNRIIPDETSLFLESILLHQIIGADLSTIEILNRLKLDYITEFKFKNFVIAKGAPIGKSIVSLLLRCKKTLTLDRFIDTLLEDIAVLIKEISVHPNESKLAVPFLVALMYQIVQFRPSATHNLALKDCFLFICDLIRIYHHVLKVPIHESNMNLHVEPQIFQYELIDYLIISYSFDLLEGILRVLQSHPKQTYMEFFDENILKSFEFVYKLALTISYKPMVNVIFSAVEVVNIITSIILNMDNSSDLKSLISGSWWRDCITRLYALLEKEIKSGDVYNENVDTTTLHMSKYHDFFGLIRNIGDNELGGLISKLIYTDRLQSVPRVISKEDIGMDSDKFTAPIIGYKMEKWLLKLKDEVLNIFENLLMIYGDDATIVNGEMLIHSSKFLSREQALMIERYVGQDSPNLDLRCHLIEHTLTIIYRLWKDHFKQLREEQIKQVESQLIMSLWRFLVCQTETVTANEREMRDHRHLVDSLHDLTIKDQASYYEDAFEDLPEYIEEELKMQLNKRTGRIMQVKYDEKFQEMARTILESKSFDLTTLEEADSLYISMGL
notes: Ddc2, yeast homolog of human ATRIP, endogenous; purified together with Mec1; they may stand in the supplementary file; source: endogenously purified from cultured yeast cells treated with HU or MMS
  binding result: binds
